Our source for the half-maximal inhibitory concentration for GO-203 (BT-474/CshRNA cell growth) values is US20160058827A1.

In the experiment the target is MUC1 C-terminal subunit (MUC1-C) (human) (UniProt P15941). Kind of experiment: cell-based or functional assay.
Sequence of MUC1 C-terminal subunit (MUC1-C) (human) (P15941 1097-1255): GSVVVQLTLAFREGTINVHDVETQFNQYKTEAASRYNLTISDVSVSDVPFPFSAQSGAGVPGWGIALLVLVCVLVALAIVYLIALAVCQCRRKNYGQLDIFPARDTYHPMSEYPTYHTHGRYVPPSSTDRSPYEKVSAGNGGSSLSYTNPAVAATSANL

In turn, GO-203 (peptide) displayed a half-maximal inhibitory concentration for GO-203 (BT-474/CshRNA cell growth) of 3.9 µM.
